This note sets out measurements from ChEMBL document CHEMBL1132182, “2,6-Difluorophenol as a bioisostere of a carboxylic acid: bioisosteric analogues of gamma-aminobutyric acid” (J Med Chem, 1999).

For the data set, the system named is NCCCC(=O)O.

Sequence of 4-aminobutyrate aminotransferase, mitochondrial (Sus scrofa), P80147 (P80147 whole entry): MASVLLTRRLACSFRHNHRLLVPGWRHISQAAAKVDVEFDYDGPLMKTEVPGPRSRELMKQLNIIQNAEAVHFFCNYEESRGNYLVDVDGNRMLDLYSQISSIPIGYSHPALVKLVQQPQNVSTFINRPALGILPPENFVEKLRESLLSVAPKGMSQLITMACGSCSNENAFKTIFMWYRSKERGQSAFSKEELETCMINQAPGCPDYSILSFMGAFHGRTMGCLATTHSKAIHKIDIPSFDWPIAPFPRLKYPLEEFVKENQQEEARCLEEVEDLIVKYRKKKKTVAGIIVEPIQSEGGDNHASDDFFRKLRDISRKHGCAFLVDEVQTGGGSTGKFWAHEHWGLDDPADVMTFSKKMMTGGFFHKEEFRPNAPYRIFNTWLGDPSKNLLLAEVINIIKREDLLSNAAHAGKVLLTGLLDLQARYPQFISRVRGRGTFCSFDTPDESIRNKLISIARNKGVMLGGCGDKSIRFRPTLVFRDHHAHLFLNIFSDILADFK
Description: Michaelis-Menten constant of the compound.

As to “4-aminobutyrate aminotransferase, mitochondrial (Sus scrofa), P80147”, the Michaelis constant (Km) amounted to 2500 µM.

The Km is the substrate concentration at which the rate is half of its maximum.
